Measured values from patent publication US20160152995A1, “METHODS AND COMPOSITIONS TO IMPROVE THE SPREAD OF CHEMICAL SIGNALS IN PLANTS” (PIONEER HI-BRED INTERNATIONAL, INC., priority 2013, published 2016).

Test system: E. coli assay strain Km3
Experiment: Liquid B-galactosidase assays of chlorsulfuron repressor hits (induction and repression)
Conditions: CsL4.2 hits; for F. IND = fold induction (IND/REP) (B-galactosidase): 20 ppb Cs vs no inducer; for IND = induction with 20 ppb CS (B-galactosidase) / REP = repression in absence of inducer (B-galactosidase): liquid B-galactosidase assay; for REP = repression in absence of inducer (B-galactosidase): no inducer
Procedure: In order to create new diversity for shuffling the top clone from CsL3 was subjected to error prone PCR mutagenesis using Mutazyme (Stratagene). The mutated PCR product encoding the CsR ligand binding domain was inserted into library expression vector pVER7334 as a Sac1 to Asc1 fragment, transformed into library strain Km3 and plated onto LB+40 ug/ml Kanamycin and 50 ug/ml Carbenecillin. Approximately 10,000 colonies were then replica plated onto M9 Xgal assay medium +/−20 ppb Cs. Putative hits were then re-arrayed and replica plated onto the same assay medium. Performance was gauged by the level of blue colony color after 24 hrs incubation on inducer (induction) and 72 hrs incubation without inducer (repression). The top hits were then subjected to liquid B-galactosidase assays for quantitative assessment (Table 21).
Seventh round library CsL4.2 was designed based on the best diversity from CsL3 and CsL3-MTZ library screens (Table 14). The library was assembled with oligonucleotides shown below in Table 22. The first and last primers were used as rescue primers. CsL4.2 included a C-terminal 6×His-tag extension to facilitate protein purification. The library was assembled and cloned into vector pVER7334 Sac1 to Asc1, transformed into library assay strain Km3 and plated onto LB+40 ug/m1 Kanamycin and 50 ug/ml carbenecillin. Approximately 8,000 colonies were re-arrayed into 384-well format and replica plated onto M9 Xgal assay medium +/−2 ppb Cs. Putative hits were re-arrayed in 96-well format onto the same media for re-testing. Confirmed hits were then tested for induction and repression aspects in liquid culture using B-galactosidase assays.
Mutagenesis reactions were transformed into E. coli assay strain Km3 and plated onto LB+50 ug/ml Carbenecillin. Colonies were then re-arrayed into 384 well format and replica plated onto M9 Xgal assay medium +/−5 ppb Chlorsulfuron. Putative hits were then re-arrayed and analyzed by B-galactosidase assays relative to the parent clones (FIG. 10).

B1: CsL4.2-22 (protein)
chain: MARLDKSKVINSALELLNEVGIEGLTTRKLAQKLGVEQPTLYWHVKNKRALLDALAIEMHDRHQTHYLPLEGESWQDFLRNFAKSMRRALLSHRDGAKIALGTRWTEQQYETAENMLAFLTQQGFSLENALYATDAVRVFTLGAVLLDQEQQVAKEERETPTPDSMPPLLRQAWELKDHQGAEPAFLFGLELIIAGLEKQLKRESGSHHHHHH
modifications: Sulfonylurea responsive repressor
- F. IND = fold induction (IND/REP) (B-galactosidase): 20.8
- IND = induction with 20 ppb CS (B-galactosidase): 5.4
- REP = repression in absence of inducer (B-galactosidase): 0.3

B2: CsL4.2-01 (protein)
chain: MARLDKSKVINSALELLNEVGIEGLTTRKLAQKLGVEQPTLYWHVKNKRALLDALAIEMHDRHQTHYLPLEGESWQDYLRNFAKSMRRALLSHRDGAKVALGTRWTEQQYETAENMLAFLTQQGFSLENALYATDAVRVFTLGAVLLDQEGQVAKEERETPTTDSMPPLLRQAWELKVHQGAEPAFLFGLELIIAGLEKQLKRESGSHHHHHH
modifications: Sulfonylurea responsive repressor
- F. IND = fold induction (IND/REP) (B-galactosidase): 9.8
- IND = induction with 20 ppb CS (B-galactosidase): 3.8
- REP = repression in absence of inducer (B-galactosidase): 0.4

B3: CsL4.2-08 (protein)
chain: MARLDKSKVINSALELLNEVGIEGLTTRKLAQKLGVEQPTLYWHVKNKRALLDALAIEMMDRHQTHYLPLEGESWQDFLRNFAKSMRRALLSHRDGAKVALGTRWTEQQYETAENMLAFLTQHGFSLENALYATDAVRVFTLGAVLLDQEQQVAKEERETPTPDSMPPLLRQAWELKVHQGAEPAFLFGLELIIAGLEKQLKRESGSHHQHHH
modifications: Sulfonylurea responsive repressor
- IND = induction with 20 ppb CS (B-galactosidase): 10.7
- REP = repression in absence of inducer (B-galactosidase): 0.7

B4: CsL4.2-17 (protein)
chain: MARLDKSKVINSALELLNEVGIEGLTTRKLAQKLGVEQPTLYWHVKNKRALLDALAIEMMDRHQTHYLPLEGESWQDYLRNFAKSMRCALLSHRDGAKVALGTRWTEQQYETAENMLAFLTQQGFSLENALYATSAVRVFTLGAVLLDQEQQVAKEERETPTTDSMPPLLRQAWELKVHQGAEPAFLFGLELIIAGLEKQLKRESGSHHHHHH
modifications: Sulfonylurea responsive repressor
- F. IND = fold induction (IND/REP) (B-galactosidase): 9.7
- IND = induction with 20 ppb CS (B-galactosidase): 3.1
- REP = repression in absence of inducer (B-galactosidase): 0.3

B5: CsL4.2-23 (protein)
chain: MARLDKSKVINSALELLNEVGIEGLTTRKLAQKLGVEQPTLYWHVKNKRALLDALAIEMMDRHQTHYLPLEGESWQDYLRNFAKSMRCALLSHRDGAKVALGTRWTEQQYETAENMLAFLTQQGFSLENALYATSAVRVFTLGAVLLDQEQQVAKEERETPTPDRMPPLLRQAWELKVHQGAEPAFLFGLELIIAGLEKQLKRESGSHHHHHH
modifications: Sulfonylurea responsive repressor
- F. IND = fold induction (IND/REP) (B-galactosidase): 10.5
- IND = induction with 20 ppb CS (B-galactosidase): 10.4
- REP = repression in absence of inducer (B-galactosidase): 1.0

B6: CsL4.2-04 (protein)
chain: MARLDKSKVINSALELLNEVGIEGLTTRKLAQKLGVEQPTLYWHVKNKRALLDALAIEMHDRHQTHYLPLEGESWQDFLRNFAKSMRCALLSHRDGAKVALGTRWTEQQYETAENMLAFLTQQGFSLENALYATDAVRVFTLGAVLLDQEQQVANEGRETPTTDSMPPLLRQAWELKEHQGAEPAFLFGLELIIAGLEKQLKRESGSHHHHHH
modifications: Sulfonylurea responsive repressor
- F. IND = fold induction (IND/REP) (B-galactosidase): 10.2
- IND = induction with 20 ppb CS (B-galactosidase): 4.3
- REP = repression in absence of inducer (B-galactosidase): 0.4

B7: CsL4.2-07 (protein)
chain: MARLDKSKVINSALELLNEVGIEGLTTRKLAQKLGVEQPTLYWHVKNKRALLDALAIEMHDRHQTHYLPLEGESWQDYLRNFAKSMRCALLSHRDGAKIALGTRWTEQQYETAENMLAFLTQQGFSLENALYATDAVRVFTLGAVLLDQEQQVAKEERETPTPDSMPPLLRQAWELKVHQGAEPAFLFGLELIIAGLEKQLKRESGSHHHHHH
modifications: Sulfonylurea responsive repressor
- F. IND = fold induction (IND/REP) (B-galactosidase): 18.9
- IND = induction with 20 ppb CS (B-galactosidase): 6.5
- REP = repression in absence of inducer (B-galactosidase): 0.3

B8: CsL4.2-24 (protein)
chain: MARLDKSKVINSALELLNEVGIEGLTTRKLAQKLGVEQPTLYWHVKNKRALLDALAIEMHDRHQTHYLPLEGESWQDYLRNFAKSMRCALLSHRDGAKVALGTRWTEQQYETAENMLAFLTQQGFSLENALYATSAVRVFTLGAVLLDQEGQVANEERETPTPDSMPPLLRQAWELKVHQGAEPAFLFGLELIIAGLEKQLKRESGSHHHHHH
modifications: Sulfonylurea responsive repressor
- F. IND = fold induction (IND/REP) (B-galactosidase): 14.3
- IND = induction with 20 ppb CS (B-galactosidase): 5.4
- REP = repression in absence of inducer (B-galactosidase): 0.4

B9: CsL4.2-21 (protein)
chain: MARLDKSKVINSALELLNEVGIEGLTTRKLAQKLGVEQPTLYWHVKNKRALLDALAIEMMDRHGTHYLPLEGESWQDFLRNYAKSMRRALLSHRDGAKVALGTRWTEQQYETAENMLACLTQQGFSLENALYATSAVRVFTLGAVLLDQEQQVANEERETPTTDSMPPLLRQAWELKVHQGAEPAFLFGLELIIAGLEKQLKRESGSHHHHHH
modifications: Sulfonylurea responsive repressor
- F. IND = fold induction (IND/REP) (B-galactosidase): 13.2
- IND = induction with 20 ppb CS (B-galactosidase): 3.2
- REP = repression in absence of inducer (B-galactosidase): 0.2

B10: CsL4.2-26 (protein)
chain: MARLDKSKVINSALELLNEVGIEGLTTRKLAQKLGVEQPTLYWHVKNKRALLDALAIEMHDRHQTHYLPLEGESWQDYLRNFAKSMRCALLSHRDGAKVSLGTRWTEQQYETAENMLAFLTQQGFSLENALYATSAVRVFTLGAVLLDQEQQVAKEERETPTPDRMPPLLRQAWELKVHQGAEPAFLFGLELIIAGLEKQLKRESGSHHHHHH
modifications: Sulfonylurea responsive repressor
- F. IND = fold induction (IND/REP) (B-galactosidase): 10.6
- IND = induction with 20 ppb CS (B-galactosidase): 3.1
- REP = repression in absence of inducer (B-galactosidase): 0.3

B11: CsL4.2-16 (protein)
chain: MARLDKSKVINSALELLNEVGIEGLTTRKLAQKLGVEQPTLYWHVKNKRALLDALAIEMMDRHQTHYLPLEGESWQDYLRNFAKSMRCALLSHRDGAKVSLGTRWTEQQYETAENMLAFLTQQGFSLENALYATDAVRVFTLGAVLLDQEGQVANEERETPTPDRMPPLLRQAWELKVHQGAEPAFLFGLELIIAGLEKQLKRESGSHHHHHH
modifications: Sulfonylurea responsive repressor
- F. IND = fold induction (IND/REP) (B-galactosidase): 15.2
- IND = induction with 20 ppb CS (B-galactosidase): 3.8
- REP = repression in absence of inducer (B-galactosidase): 0.3

B12: CsL4.2-28 (protein)
chain: MARLDKSKVINSALELLNEVGIEGLTTRKLAQKLGVEQPTLYWHVKNKRALLDALAIEMMDRHQTHYLPLEGESWQDYLRNFAKSMRCALLSHRDGAKVALGTRWTEQQYETAENMLAFLTQQGFSLENALYATSAVRVFTLGAVLLDQEQQVAKQERETPTPDSMPPLLRQAWELKVHQGAEPAFLFGLELIIAGLEKQLKRESGSHHHHHH
modifications: Sulfonylurea responsive repressor
- F. IND = fold induction (IND/REP) (B-galactosidase): 11.3
- IND = induction with 20 ppb CS (B-galactosidase): 5.3
- REP = repression in absence of inducer (B-galactosidase): 0.5

B13: CsL4.2-30 (protein)
chain: MARLDKSKVINSALELLNEVGIEGLTTRKLAQKLGVEQPTLYWHVKNKRALLDALAIEMHDRHQTHYLPLEGESWQDFLRNFAKSMRRALLSHRDGAKVALGTRWTEQQYETAENMLAFLTQQGFSLENALYATSAVRVFTLGAVLLDQEGQVANEERETPTPDSMPPLLRQAWELKVHQGAEPAFLFGLELIIAGLEKQLKRESGSHHHHHH
modifications: Sulfonylurea responsive repressor
- F. IND = fold induction (IND/REP) (B-galactosidase): 10.8
- IND = induction with 20 ppb CS (B-galactosidase): 4.9
- REP = repression in absence of inducer (B-galactosidase): 0.5

B14: CsL4.2-15: top CsR hit of library CsL4.2 (protein)
chain: MARLDKSKVINSALELLNEVGIEGLTTRKLAQKLGVEQPTLYWHVKNKRALLDALAIEMHDRHQTHYLPLEGESWQDFLRNFAKSMRRALLSHRDGAKVSLGTRWTEQQYETAENMLAFLTQQGFSLENALYATDAVRVFTLGAVLLDQEQQVAKEERETPTTDSMPPLLRQAWELKVHQGAEPAFLFGLELIIAGLEKQLKRESGS
modifications: Sulfonylurea responsive repressor
- IND = induction with 20 ppb CS (B-galactosidase): 4.0
- REP = repression in absence of inducer (B-galactosidase): 0.2
